This assay has as its target Leminorella grimontii GatC (Leminorella grimontii). The experiment in a line: crystal structure.

Here are results for one substance from publication doi:10.1101/2025.04.02.646771.

On to “Leminorella grimontii GatC (natural protein)”, for which the stoichiometry N was found to be 2.

As a reminder, the stoichiometry N is the number of molecules, sites or subunits per partner or assembly.
